Laboratory results taken from the nanobody polyreactivity screen of Harvey et al. (2022).

Test: yeast display, Sf9 membrane polyspecificity reagent, FACS + sequencing; frameworks hold sequencing errors
Method in brief: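 Nanobodies from a synthetic yeast display library (Saccharomyces cerevisiae BJ5465), induced 36–48 hours with galactose, were stained 1 hour at 4 °C with 10% biotinylated, detergent-solubilized Sf9 membrane reagent, enriched on streptavidin microbeads, then FACS-sorted. Anti-HA (expression) and streptavidin (reagent binding) fluorescence set low and high (top ~1%) gates. Polyreactivity labels come from the gate of origin. Genes were colony-PCR amplified, MiSeq 2 × 250 sequenced and filtered by CDR length.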

QVQLVESGGGLVQAGGSLRLSCAASGSTFLSYAKGWYRQATGKEREVVAAISGRGGSTYYADSVKGRFTISRDNAKNTVYLKMNSLKPEDTAVYYCARVYRPSADTYNYWGQGTQVTVSS
polyreactivity (PSR sort gate): high polyreactivity

QVQLVESGGGLVQAGGSLRLSCAASGSTFLSYAMGWYRQAPGKERELVATINRGGSTYYADSVKGRFTISRDNAKNTVYLQMNSLKPEDTAVYYCAKANKRGRYNYWGQGTQVTVSS
polyreactivity (PSR sort gate): high polyreactivity

QVQLVESGGGLVQAGGSLRLSCAASGSTFLTNAMGWYRQAPGKERELVAAIRWRGGDTRYADSVKGRFTISRDNAKNTVYLQMNSLKPEDTAVYYCAAQYRKTQYQKKYDYWGQGTQVTVSS
polyreactivity (PSR sort gate): high polyreactivity

QVQLVESGGGLVQAGGSLRLSCAASGSTFLTNTMGWYRQAPGKERELVAIISRSSGTTYYSDSVKGRFTISRDNAKNTVYLQMNSLKPEDTAVYYCAKRYRRASPYSKNVYWGQGTQVTVSS
polyreactivity (PSR sort gate): high polyreactivity

QVQLVESGGGLVQAGGSLRLSCAASGSTFLTYDMGWYRQAPGKERELVAAISGGGSTNYADSVKGRFTISRDNAKNTFYLQMNSLKPVDTAVYYCAAKASGNFYYYWGQGTQVTVSS
polyreactivity (PSR sort gate): high polyreactivity

QVQLVESGGGLVQAGGSLRLSCAASGSTFLVYAMGWYRQAPGKERELVAVITRGVRTFYADSVKGRFTFSRDNAKNTVYLQMNSLKPEDTAVYYCAKERYNANYDTSLYDYWGQGTQVTVSS
polyreactivity (PSR sort gate): low polyreactivity

QVQLVESGGGLVQAGGSLRLSCAASGSTFLYYSMGWYRQAPGKETELVAAIDSGGSTYYADSVKWRFTISRDNAKNTVYLQMNSLKPEDTAVYYCNPDFADHWPPNGPGAHDYWGQGTQVTVSS
polyreactivity (PSR sort gate): low polyreactivity

QVQLVESGGGLVQAGGSLRLSCAASGSTFNAYAMGWNRQAPGKERELVAVISSSGGRTYYADSVKGRFTISRDNAKNTVYLQMNSLKPEDTAVYYCNADVKYRYNHWGQGTQVTVSS
polyreactivity (PSR sort gate): high polyreactivity

QVQLVESGGGLVQAGGSLRLSCAASGSTFNDYAMGWYRQAPGKERELVAGITWRGTSTYYADSVKGRFTISRDNAKNTVYLQMNSLKPEDTAVYYCAADVYYLLWLWMDYWGQGTQVTVSS
polyreactivity (PSR sort gate): low polyreactivity

QVQLVESGGGLVQAGGSLRLSCAASGSTFNDYAMGWYRQAPGNERELVAGITWRGTSTYYADSVKGRFTISRDNAKNTVYLQMNSLKPEDTAVYYCNADHVYGGYQYDFDYWGQGTQVTVSS
polyreactivity (PSR sort gate): low polyreactivity

QVQLVESGGGLVQAGGSLRLSCAASGSTFNDYVMGWYRKAPGKERELVAAISRSGGSTYYADSVKGRFTISRDNAKNTVYIQMNSLKPEDTAFYYCNSDVGYWWGYYGYDYWGQGTQVTVSS
polyreactivity (PSR sort gate): high polyreactivity

QVQLVESGGGLVQAGGSLRLSCAASGSTFNGNVMGWYRQAPGKDRELVAGISKSGGTTYYADSVKGRFTISRDNAKNTVYLQMNSLKPEDTAVYYCDARGRVRYYPQYDYWGQGTQVTVSS
polyreactivity (PSR sort gate): high polyreactivity

QVQLVESGGGLVQAGGSLRLSCAASGSTFNGYAMGWYRQAPGKERELVAAISKRGGSTYYADSVKGRFTISRDNAKNTVYLQMNSLKPEDTAVYYCAARNPTKYLMDYWGKGTQVTVSS
polyreactivity (PSR sort gate): high polyreactivity

QVQLVESGGGLVQAGGSLRLSCAASGSTFNIYVMGSYREPPGKERELVAAITTSGRTYYADSVKGRFTISRDNAKNTVYLQMNSLKPEDNAVYYCAAATGTYGRGGYYWGQGTQVTVSS
polyreactivity (PSR sort gate): high polyreactivity

QVQLVESGGGLVQAGGSLRLSCAASGSTFNLYAMGWYRPAPGKERELVAAISRGGSTYYADSVKGRFTISRDNAKNTVYLQMNSLKPEDTAVYYCAARSWYDRYPYYSWGQGTQVTVSS
polyreactivity (PSR sort gate): high polyreactivity

QVQLVESGGGLVQAGGSLRLSCAASGSTFNLYAMGWYRQAHGKERELVADITWSGGSTYYADSVKWRFTISRDNAKKTFYLQMNSLKPEDTAVYYCAAYGLSWGGYDYWGQATQVTVSS
polyreactivity (PSR sort gate): low polyreactivity

QVQLVESGGGLVQAGGSLRLSCAASGSTFNNYGMGWYTQAPGTERELVAAITKSGGITYYADSVKGRFTISRDNAKNTVYLQMNRLKREDTAVYYCAAAYTIYWFSYRVLYYYWGQGTQVTVSS
polyreactivity (PSR sort gate): low polyreactivity

QVQLVESGGGLVQAGGSLRLSCAASGSTFNPYTMGWPRQAPGKERELVATITRIGGSTYYADSVKGRFTISRDNAKNTVDLQMNSLKPEDNAVYYCAADHYRSVRWRSDYTYRVNYWGQGTQVTVSS
polyreactivity (PSR sort gate): high polyreactivity

QVQLVESGGGLVQAGGSLRLSCAASGSTFNRNAMGWYRQAPGKERELVAAISWRGDSTSYADSVKGRFTISRDNAKNTVYLQMNSLKPEDTAVYYCATAHDYAFYRYWYVPSEYNYWGQGSQVTVSS
polyreactivity (PSR sort gate): low polyreactivity

QVQLVESGGGLVQAGGSLRLSCAASGSTFNRNGMGWYRQAPGKERELVAAISRSTTSTYYADSVKGRFTISRDNAKNTVYLQMNSLKPEDTAVYYCATPHRYRVDYWGQGTQVTVSS
polyreactivity (PSR sort gate): high polyreactivity

QVQLVESGGGLVQAGGSLRLSCAASGSTFNRYAMGWYRQAPGKERELVAAISWNGGSTYYADSVKGRFTSSRDNAKNTVYLQMNSLKPEDTAVYYCATLVRKYDGFNYWGQGTQVTVSS
polyreactivity (PSR sort gate): high polyreactivity

QVQLVESGGGLVQAGGSLRLSCAASGSTFNRYAMGWYRQAPGKERELVASISWGGGRTYYADSVKGRFTISRDNAKNTVYLQMNSLKPEDTAVYYCATDRYYRHYEVDYWGQGTQVTVSS
polyreactivity (PSR sort gate): low polyreactivity

QVQLVESGGGLVQAGGSLRLSCAASGSTFNSNAMGWYRQAPGKERELVASITWTDVSTYYADSVKGRFTISRDNAKNTVYLQMNSLKPEDTAVYYCAAVTGLSSNDGYDYWGQGTQVTVSS
polyreactivity (PSR sort gate): low polyreactivity

QVQLVESGGGLVQAGGSLRLSCAASGSTFNWYAMGWYRQAPGKERELVAAISSGGNTNYADSVKGRFTISRDNAKNTVYLQMNSLKPEDTAVYYCAARYPYKHLAWSTSKRFGYWGQGTQVTVSS
polyreactivity (PSR sort gate): low polyreactivity

QVQLVESGGGLVQAGGSLRLSCAASGSTFNYYAMGGNRQAPGKESELVAAISTRGSSTSYADSVKGRFTISRDNAKNTVYLQMNSLKPEDTAVYYCTAPRWSPRRYGYWGQGTQVTVSS
polyreactivity (PSR sort gate): high polyreactivity

QVQLVESGGGLVQAGGSLRLSCAASGSTFPFNAMGWYRQAPGKERELVAAITTSAGSTYYADSVKGRFTISRDNAKKTVYLQMNSLKPEDTAVYYCAARYVPPWGRRYYYWGQGTQVTVSS
polyreactivity (PSR sort gate): high polyreactivity

QVQLVESGGGLVQAGGSLRLSCAASGSTFPFNAMGWYRQAPGKERELVAVITYSGGSTYYADSVKGRFTISRDNAKNTVYLHMNSLKPVVTAVYYCAADVYYWGSTYYYWGLGTQVTVSS
polyreactivity (PSR sort gate): high polyreactivity

QVQLVESGGGLVQAGGSLRLSCAASGSTFPFYVMGWYRQAPGKERELVASIRGTGGNTYYADSVKGRFTISRDNAKNTVYLQMNSLKPEDTAVYYCNAVYRLSHYDLDYWGQGTQVTVSS
polyreactivity (PSR sort gate): high polyreactivity

QVQLVESGGGLVQAGGSLRLSCAASGSTFPGNAMGWYRQAPGKERELVAAINWSGDSTYYADSVKGRFTISRDNAKNTVYLQMNSLKPEDTAVYYCAAYGVGYYYWGQGTQVTVSS
polyreactivity (PSR sort gate): low polyreactivity

QVQLVESGGGLVQAGGSLRLSCAASGSTFPGNAMGWYRQAPGKERELVAAITSTGTTYYADSVKGRFTISRDNAKNTVYLQMNSLKPEDTAVYYCNADPSPDPSTFDYWGQGTQVTVSS
polyreactivity (PSR sort gate): low polyreactivity

QVQLVESGGGLVQAGGSLRLSCAASGSTFPGNAMGWYRQAPGKERELVASIRRSGGSTYYADSVKGRFTISRDNAKNTVYLQMNSLKPEDTAVYYCAKRTFLVSGPRSYGWYGVYYWGQGTQVTVSS
polyreactivity (PSR sort gate): high polyreactivity

QVQLVESGGGLVQAGGSLRLSCAASGSTFPGYAMGWYRQAPGKERELVAAITAGGGSTYYADSVKGRFTISRDNAKNSVYLLMKSLKPEDTAVYYCAKRYSYYGWRRYDYWGQGTQVTVSS
polyreactivity (PSR sort gate): high polyreactivity

QVQLVESGGGLVQAGGSLRLSCAASGSTFPGYAMGWYRQAPGKERELVAAITTSGGSTYYADSVKGRFTISRDNAKNTVYLQMNSLKPEDTAVYYCAADYWYYLDAGYYWGQGTQVTVSS
polyreactivity (PSR sort gate): low polyreactivity

QVQLVESGGGLVQAGGSLRLSCAASGSTFPGYAMGWYRQAPGKERELVASIYTGGSTYYADSVKGRFTISRDNAKKTVYLQMHSLKPEDSAVYYCAADSYNVSSLMYYWGQGTQVTVSS
polyreactivity (PSR sort gate): low polyreactivity

QVQLVESGGGLVQAGGSLRLSCAASGSTFPINAMGWYRQAPGKERELVACISSGGSTDYADSVKGRFTISRVNAKNTVYLQMNSLKAEHTAVYYWAAVRGPSLVTKYPHDYWGQGTQVTVSS
polyreactivity (PSR sort gate): low polyreactivity

QVQLVESGGGLVQAGGSLRLSCAASGSTFPINTMGWYRQAPGKERELVAAITHSGGRTYYADSVKGRFTISRVNAKNTVYLQMNSLKPEDTAVYYCNAVRYYAVRVSDGDYDYWGQGTQVTVSS
polyreactivity (PSR sort gate): low polyreactivity

QVQLVESGGGLVQAGGSLRLSCAASGSTFPKYAMGWYRQAPGKERELVAAISWYGGRTYYADSVKGRFTISRDNAKHTVYLQMNSLKPEDTAVYYCAASIPGTRSDGYWGQGTQVTVSS
polyreactivity (PSR sort gate): low polyreactivity

QVQLVESGGGLVQAGGSLRLSCAASGSTFPKYAMGWYRQAPGKERELVALITSSTGTTYYADSVKGRFTISRDNAKNTVYLQMNSLKPEDTAVYYCNARVRYREWGLYYWGQGTQVTVSS
polyreactivity (PSR sort gate): high polyreactivity

QVQLVESGGGLVQAGGSLRLSCAASGSTFPKYAMGWYRQAPGKERELVASISVTTGSTYYADSVKGRFTISRDNAKNTVYLQMNSLKPEDTAVYYCAARRGWGDDYWGQGTQVTVSS
polyreactivity (PSR sort gate): high polyreactivity

QVQLVESGGGLVQAGGSLRLSCAASGSTFPLYAMGWYRQAPGKDRELVAAITWSGANTYYADSVKGRFTISRDNAKNTVSLQMNSLKPEDTAVYYCAAGSYAGFAVIGYYYWGQGTQVTVSS
polyreactivity (PSR sort gate): low polyreactivity

QVQLVESGGGLVQAGGSLRLSCAASGSTFPPNAMGWYRQAPGKERELVAVISNGGSNTRYADSVKGRFTISRDIAKNTVYLQMNSLKPEDTAVYYCAADYEYSGYGYWGQGTQVTVSS
polyreactivity (PSR sort gate): high polyreactivity

QVQLVESGGGLVQAGGSLRLSCAASGSTFPPNAMGWYRQAPGKERELVAVISYSDGSTYYADSVKGRFTISRDNAKNTVYLQMNSLKPEDTAVYYCAAYSGYGGVSMYYWGQGTQVTGSS
polyreactivity (PSR sort gate): low polyreactivity

QVQLVESGGGLVQAGGSLRLSCAASGSTFPPNGMGWYRQAPGKERELVAAIRWRGGSTYYADSVKGRFTISRDNAKNTVYLQMNSLKPEDTAVYYCAKYVTYSRPTNSPSGKHVYWGQGTQVTVSS
polyreactivity (PSR sort gate): low polyreactivity
